This note sets out measurements from patent publication US20240254229A1 (Molecular Partners, published 2024).

Assay [1] deals with T1, Molm-13 N1 tumor cells (carrying CD123, CD33 and CD70) (human, UniProt P20138 18-364; P26951 19-378; P32970 1-193).
T1 construct: whole, on cells; Not a complex: three separate antigens on one cell; also called Molm-13 N1 cells
As to the kind of experiment: flow cytometry on Molm-13 N1 cells, 20 uM HSA. As for the experimental part:
The determination of binding of several multispecific proteins to tumor cells was performed by Fluorescence Activated Cell Sorting (FACS) flow cytometry. Therefore, tumor cells (Molm-13 N1), were seeded at 100′000 cells per well in a 96 well plate. DARPin® protein #56, DARPin® protein #57, DARPin® protein #58, DARPin® protein #59, DARPin® protein #60, DARPin® protein #61 and DARPin® protein #62 were titrated down starting at 100 nM in 1:5 dilution ratio. Tumor cells were resuspended with diluted DARPin® proteins and incubated 60 minutes at 4° C. The assay was performed in PBS including 2% fetal bovine serum and human serum albumin 20 uM (HSA). After washing twice with Phosphate Buffer saline (PBS), DARPin® protein specific tumor cell binding was detected by adding unlabelled primary […] (anti-rabbit 1-1-1 antibody, CePower) at 2 ug/ml. An incubation step of at least 30 minutes at 4° C. followed. Afterwards, cells were washed with PBS and a secondary anti-rabbit antibody labelled with Alexa Fluor 647 antibody (ThermoFisher) at 2 ug/ml was added. The same incubation conditions applied. Finally, the cells were washed twice and resuspended in Cytofix fixation buffer (BD Biosciences) for 15 min at room temperature (RT). Median fluorescence intensities (MFI) of Alexa Fluor 647 DARPin® labelled cells were measured by Attune NxT (Thermo Fisher) using FlowJo software for analyses and GraphPad Prism 8 for data plotting.
For orientation: A flow cytometer gives signals particle by particle.

Assay [2] concerns the target T2, extracellular domain of human CD70 (SEQ ID NO: 89), hCD70-Fc-trimer, ACRO Biosystems (human, UniProt P32970 52-193, chemically biotinylated where the biotinylated form was used).
T2 construct: also called human CD70-Fc-trimer; Bio.CD70
T2 sequence: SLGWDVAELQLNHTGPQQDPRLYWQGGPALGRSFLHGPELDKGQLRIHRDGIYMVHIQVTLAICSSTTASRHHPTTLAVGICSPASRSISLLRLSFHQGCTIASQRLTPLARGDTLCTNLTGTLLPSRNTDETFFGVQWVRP
Description: SPR (ProteOn XPR36), target on GLC chip, DARPin as analyte. The source says:
(§1) For that, DARPin® protein #27, DARPin® protein #29, DARPin® protein #47 and DARPin® protein #48 and DARPin® protein #49, DARPin® protein #50, DARPin® protein #51, DARPin® protein #52, DARPin® protein #31, DARPin® protein #53, DARPin® protein #54, DARPin® protein #55, DARPin® protein #34, DARPin® protein #33, DARPin® protein #39 and DARPin® protein #36 were subcloned and expressed as described above into derivatives of the pQE30 (Qiagen) expression vector, containing an N-terminal His-tag, CD33, CD123 and/or CD70 binding ankyrin repeat domains, followed by a CD3 specific ankyrin repeat domain and for some constructs by a human serum albumin specific ankyrin repeat domain.
(§2) Briefly, biotinylated human CD70, CD123 and CD33 was diluted in PBST (PBS, pH 7.4 containing 0.005% Tween 20®) and coated on a GLC chip (BioRad) to a level of around 200, 460 and 450 resonance units (RU) respectively. HSA in NaOAc pH 5.0 was directly immobilized on the GLC chip to a level of 800 RU. Bio.CD70, bio. CD33 and bio. CD123 required to have Neutravidin coated first to a level of 6000 RU before the biotinylated targets could be applied. The interaction of the selected ankyrin repeat proteins and human CD70, CD123 and CD33 was then measured by injecting 300 μl running buffer (PBS, pH 7.4 containing 0.005% Tween 20®) containing serial dilutions of ankyrin repeat proteins covering a concentration range between 100 nM and 2.6 nM (100, 40, 16, 6.4 and 2.6 nM respectively) for multi-trace SPR measurements, with an association of 120 s and dissociation of 1200 s using a constant flow of 100 μl/min. The regeneration was performed using 30 μl of 4 mM Glycine pH 2. The signals (i.e. resonance unit (RU) values) of the interspots and a reference injection (i.e. injection of running buffer only) were subtracted from the RU traces obtained after injection of ankyrin repeat protein (double-referencing).

For the next assay, the target named is T3, human serum albumin (human, UniProt P02768 25-609).
T3 construct: also called HSA; SA
The assay is described as above.
Text: as §1, §2

Assay [3] deals with T4, biotinylated extracellular domain of human CD33 (SEQ ID NO: 87), Fc and Avi tagged (human, UniProt P20138 18-259, biotinylated with BirA-GST (Avi tag)).
T4 construct: also called hCD33; human target hCD33
The assay is described as above.
Text: as §1, §2

The target of assay [4] is T5, biotinylated extracellular domain of human CD123 (SEQ ID NO: 88), Fc and Avi tagged (human, UniProt P26951 19-303, biotinylated with BirA-GST (Avi tag)).
T5 construct: also called hCD123
T5 sequence: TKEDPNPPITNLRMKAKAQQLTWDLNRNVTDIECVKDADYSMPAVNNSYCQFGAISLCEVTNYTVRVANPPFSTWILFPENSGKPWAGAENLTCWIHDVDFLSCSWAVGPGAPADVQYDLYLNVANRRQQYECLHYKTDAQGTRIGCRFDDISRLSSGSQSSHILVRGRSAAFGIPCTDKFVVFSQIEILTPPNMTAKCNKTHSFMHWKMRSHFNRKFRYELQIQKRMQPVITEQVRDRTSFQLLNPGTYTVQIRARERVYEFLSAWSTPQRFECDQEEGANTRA
As to the kind of experiment: SPR (ProteOn XPR36), target on GLC chip.
Text: as §1, §2

T4 sequence (P20138 18-259 R69G): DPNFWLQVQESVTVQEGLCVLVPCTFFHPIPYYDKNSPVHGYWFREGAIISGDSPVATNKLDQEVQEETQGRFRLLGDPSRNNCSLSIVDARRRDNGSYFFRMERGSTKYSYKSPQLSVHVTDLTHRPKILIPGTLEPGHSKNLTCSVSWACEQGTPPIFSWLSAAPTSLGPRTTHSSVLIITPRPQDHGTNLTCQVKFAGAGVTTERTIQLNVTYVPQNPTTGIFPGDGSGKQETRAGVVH
T1 sequence (P20138 18-364, one chain of several): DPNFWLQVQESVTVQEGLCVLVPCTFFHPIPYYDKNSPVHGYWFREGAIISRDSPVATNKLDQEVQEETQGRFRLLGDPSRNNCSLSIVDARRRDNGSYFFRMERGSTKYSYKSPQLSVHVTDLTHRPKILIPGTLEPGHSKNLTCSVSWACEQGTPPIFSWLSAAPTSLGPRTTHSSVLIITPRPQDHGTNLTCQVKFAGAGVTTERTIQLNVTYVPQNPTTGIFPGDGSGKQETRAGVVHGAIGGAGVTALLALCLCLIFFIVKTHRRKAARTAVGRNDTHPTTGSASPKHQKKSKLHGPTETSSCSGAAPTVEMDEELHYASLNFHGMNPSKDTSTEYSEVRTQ
T3 sequence (P02768 25-609 limits assumed): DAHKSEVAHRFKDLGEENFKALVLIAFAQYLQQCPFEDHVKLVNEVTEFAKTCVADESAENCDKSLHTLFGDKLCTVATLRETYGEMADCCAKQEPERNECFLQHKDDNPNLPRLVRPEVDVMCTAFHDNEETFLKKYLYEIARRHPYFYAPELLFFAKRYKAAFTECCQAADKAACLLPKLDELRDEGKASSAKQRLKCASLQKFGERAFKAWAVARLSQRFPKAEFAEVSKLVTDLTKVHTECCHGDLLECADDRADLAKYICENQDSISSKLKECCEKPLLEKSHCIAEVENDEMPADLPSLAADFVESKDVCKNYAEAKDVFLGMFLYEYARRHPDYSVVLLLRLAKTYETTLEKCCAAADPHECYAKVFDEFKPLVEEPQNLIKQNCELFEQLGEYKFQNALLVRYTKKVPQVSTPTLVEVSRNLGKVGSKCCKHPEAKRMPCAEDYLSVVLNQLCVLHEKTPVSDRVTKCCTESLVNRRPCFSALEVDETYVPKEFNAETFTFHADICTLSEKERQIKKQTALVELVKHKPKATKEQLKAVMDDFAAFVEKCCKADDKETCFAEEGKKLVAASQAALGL

B1: DARPin® protein #62 (designed binder)
chain: DLGKKLLEAARAGQDDEVRELLKAGADVNAKDYFSHTPLHLAARNGHLKIVEVLLKAGADVNAKDFAGKTPLHLAAADGHLEIVEVLLKAGADVNAQDIFGKTPADIAADAGHEDIAEVLQKAAGSPTPTPTTPTPTPTTPTPTPTGSDLGKKLLEAARAGQDDEVRELLKAGADVNAKDYFSHTPLHLAARNGHLKIVEVLLKAGADVNAKDFAGKTPLHLAAADGHLEIVEVLLKAGADVNAQDIFGKTPADIAADAGHEDIAEVLQKAAGSPTPTPTTPTPTPTTPTPTPTGSDLGIKLLTAAYDGQLDEVRILLKAGADVNAKDLRGQTPLHYAAGLGHLEIVEVLLKAGADVNAKDLHGWTPLHLAAWSGHLEIVEVLLKAGADVNAQDVEGVTPADLAAVQGHQDIAEVLQKAAGSPTPTPTTPTPTPTTPTPTPTGSDLGVKLLLAAERGQLDEVRILLKAGADVNAKDIAEGYTPLHIAAYQGHLEIVEVLLKAGADVNAKDRYGKTPLHLAAIGGHLEIVEVLLKAGADVNAQDNKGSTPADLAADYGHQDIAEVLQKAAGSPTPTPTTPTPTPTTPTPTPTGSDLGKKLLEAALEGQLDEVRELLKAGADVNAKDQEGYTPLHLAAALGHLEIVEVLLKAGADVNAKDQIGRTPLHLAAYKGHLEIVEVLLKAGADVNAQDIIGQTPADLAAQRGHQDIAEVLQKAAGSPTPTPTTPTPTPTTPTPTPTGSDLGQKLLEAAWAGQDDEVRELLKAGADVNAKNSRGWTPLHTAAQTGHLEIFEVLLKAGADVNAKNDKRVTPLHLAAALGHLEIVEVLLKAGADVNARDSWGTTPADLAAKYGHQDIAEVLQKAA
notes: HSA-HSA-CD70-CD33-CD123-CD3
In turn, B1 registered an EC50 in assay [1] of 0.36 nM.

B2: DARPin® protein #51 (designed binder)
chain: MRGSHHHHHHDLGKKLLEAARAGQDDEVRELLKAGADVNAKDYFSHTPLHLAARNGHLKIVEVLLKAGADVNAKDFAGKTPLHLAAADGHLEIVEVLLKAGADVNAQDIFGKTPADIAADAGHEDIAEVLQKAAGSPTPTPTTPTPTPTTPTPTPTGSDLGKKLLEAARAGQDDEVRELLKAGADVNAKDYFSHTPLHLAARNGHLKIVEVLLKAGADVNAKDFAGKTPLHLAAADGHLEIVEVLLKAGADVNAQDIFGKTPADIAADAGHEDIAEVLQKAAGSPTPTPTTPTPTPTTPTPTPTGSDLGYKLLQAAYDGQLDEVRILLKAGADVNAKDSRGQTPLHYAASIGHLEIVEVLLKAGADVNAKDDHGWTPLHLAAWSGHLEIVEVLLKAGADVNAQDQEGTTPADLAAVQGHQDIAEVLQKAAGSPTPTPTTPTPTPTTPTPTPTGSDLGVKLLLAASRGQLDEVRILLKAGADVNAKDIDEGYTPLHIAAYYGHLEIVEVLLKAGADVNAKDRYGKTPLHLAAISGHLEIVEVLLKAGADVNAQDDKGDTPADLAADYGHQDIAEVLQKAAGSPTPTPTTPTPTPTTPTPTPTGSDLGQKLLEAAWAGQDDEVRELLKAGADVNAKNSRGWTPLHTAAQTGHLEIFEVLLKAGADVNAKDDKGVTPLHLAAALGHLEIVEVLLKAGADVNAQDSWGTTPADLAAKYGHEDIAEVLQKAA
notes: HSA-HSA-CD70-CD33-CD3
B2: the dissociation constant (Kd) in assay [2] was found to be 0.56 nM; in the assay with human serum albumin it was 1.3 nM; in assay [3], 5.5 nM. In addition, the binding result in assay [4] is recorded as “no binding (tested: 100 nM (highest concentration))”.

B3: DARPin® protein #50 (designed binder)
chain: MRGSHHHHHHDLGKKLLEAARAGQDDEVRELLKAGADVNAKDYFSHTPLHLAARNGHLKIVEVLLKAGADVNAKDFAGKTPLHLAAADGHLEIVEVLLKAGADVNAQDIFGKTPADIAADAGHEDIAEVLQKAAGSPTPTPTTPTPTPTTPTPTPTGSDLGYKLLQAAYDGQLDEVRILLKAGADVNAKDSRGQTPLHYAASIGHLEIVEVLLKAGADVNAKDDHGWTPLHLAAWSGHLEIVEVLLKAGADVNAQDQEGTTPADLAAVQGHQDIAEVLQKAAGSPTPTPTTPTPTPTTPTPTPTGSDLGVKLLLAASRGQLDEVRILLKAGADVNAKDIDEGYTPLHIAAYYGHLEIVEVLLKAGADVNAKDRYGKTPLHLAAISGHLEIVEVLLKAGADVNAQDDKGDTPADLAADYGHQDIAEVLQKAAGSPTPTPTTPTPTPTTPTPTPTGSDLGQKLLEAAWAGQDDEVRELLKAGADVNAKNSRGWTPLHTAAQTGHLEIFEVLLKAGADVNAKDDKGVTPLHLAAALGHLEIVEVLLKAGADVNAQDSWGTTPADLAAKYGHEDIAEVLQKAA
notes: HSA-CD70-CD33-CD3
Turning to B3, the values for the Kd (in assay [2]; with human serum albumin; in assay [3]) were 0.81 nM, 24 nM and 7.5 nM, respectively. Also, in assay [4], the binding result was “no binding (tested: 100 nM (highest concentration))”.

B4: DARPin® protein #61 (designed binder)
chain: DLGKKLLEAARAGQDDEVRELLKAGADVNAKDYFSHTPLHLAARNGHLKIVEVLLKAGADVNAKDFAGKTPLHLAAADGHLEIVEVLLKAGADVNAQDIFGKTPADIAADAGHEDIAEVLQKAAGSPTPTPTTPTPTPTTPTPTPTGSDLGKKLLEAARAGQDDEVRELLKAGADVNAKDYFSHTPLHLAARNGHLKIVEVLLKAGADVNAKDFAGKTPLHLAAADGHLEIVEVLLKAGADVNAQDIFGKTPADIAADAGHEDIAEVLQKAAGSPTPTPTTPTPTPTTPTPTPTGSDLGKKLLQAARAGQLDEVRELLKAGADVNAKDQQGLTPLHIAANLGHLEIVEVLLKAGADVNAKDLFGLTPLHLAAFEGHLEIVEVLLKAGADVNAKDQHGATPLHLAAWVGHLEIVEVLLKAGADVNAQDKSGKTPADLAARAGHQDIAEVLQKAAGSPTPTPTTPTPTPTTPTPTPTGSDLGKKLLQAALEGQLDEVRELLKAGADVNAKDIEGYTPLHLAAALGHLEIVEVLLKAGADVNAKDQIGRTPLHLAAYKGHLEIVEVLLKAGADVNAQDIIGQTPADLAAQRGHQDIAEVLQKAAGSPTPTPTTPTPTPTTPTPTPTGSDLGKKLLLAAERGQLDEVRILLKAGADVNAKDRAEGYTPLHIAAYQGHLEIVEVLLKAGADVNAKDRYGKTPLHLAAISGHLEIVEVLLKAGADVNAQDNKGSTPADLAADYGHQDIAEVLQKAAGSPTGSDLGQKLLEAAWAGQDDEVRELLKAGADVNAKNSRGWTPLHTAAQTGHLEIFEVLLKAGADVNAKNDKRVTPLHLAAALGHLEIVEVLLKAGADVNARDSWGTTPADLAAKYGHQDIAEVLQKAA
notes: HSA-HSA-CD70-CD123-CD33-CD3
In assay [1], B4 came in with an EC50 of 0.13 nM.

Usually EC50 stands for the concentration needed to bring the measured effect to its halfway point. Read a low EC50 as higher potency in that assay. As a reminder, the Kd is the free concentration of one partner at which half of the binding sites on the other are occupied at equilibrium, for simple one-to-one binding.
